Experimental data: paper PMC4652773, “Functional significance of protein assemblies predicted by the crystal structure of the restriction endonuclease BsaWI”

What was measured:
Assay in all cases: EMSA; 5 mM Ca2+; EMSA: 40 mM Tris-acetate pH 8.3, 0.1 mg/ml BSA, 10% glycerol, 5 mM CaCl2 or 0.1 mM EDTA, 1 nM DNA, room temperature, 15 min
[1] = biological target: T1, BsaWI E128A&W262A (UniProt Q6UQ65 1-272, E128A;W262A); conditions: protein: recombinant; chain copies: 2; label: 33P; blunt
T1 sequence: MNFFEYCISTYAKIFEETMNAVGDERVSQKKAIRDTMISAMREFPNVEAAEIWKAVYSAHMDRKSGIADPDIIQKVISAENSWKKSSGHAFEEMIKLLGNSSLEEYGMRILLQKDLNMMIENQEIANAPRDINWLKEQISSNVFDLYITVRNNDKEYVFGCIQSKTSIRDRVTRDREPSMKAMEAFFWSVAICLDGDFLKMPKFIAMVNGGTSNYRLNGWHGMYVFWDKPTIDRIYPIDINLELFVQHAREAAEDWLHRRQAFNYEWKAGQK

[2] = biological target: T2, BsaWI E128A&R130A (UniProt Q6UQ65 1-272, E128A;R130A); conditions: protein: recombinant; chain copies: 2; label: 33P; blunt
T2 sequence: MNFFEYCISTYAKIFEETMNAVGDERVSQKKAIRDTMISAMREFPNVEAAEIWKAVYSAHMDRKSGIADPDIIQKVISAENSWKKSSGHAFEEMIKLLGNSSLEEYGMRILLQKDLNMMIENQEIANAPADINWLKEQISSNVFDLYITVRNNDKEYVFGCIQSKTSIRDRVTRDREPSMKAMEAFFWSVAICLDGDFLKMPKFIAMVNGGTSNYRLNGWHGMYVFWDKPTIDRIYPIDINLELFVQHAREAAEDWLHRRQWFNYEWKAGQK

[3] = biological target: T3, BsaWI R259A&W262A (UniProt Q6UQ65 1-272, R259A;W262A); conditions: protein: recombinant; chain copies: 2; label: 33P; blunt
T3 sequence: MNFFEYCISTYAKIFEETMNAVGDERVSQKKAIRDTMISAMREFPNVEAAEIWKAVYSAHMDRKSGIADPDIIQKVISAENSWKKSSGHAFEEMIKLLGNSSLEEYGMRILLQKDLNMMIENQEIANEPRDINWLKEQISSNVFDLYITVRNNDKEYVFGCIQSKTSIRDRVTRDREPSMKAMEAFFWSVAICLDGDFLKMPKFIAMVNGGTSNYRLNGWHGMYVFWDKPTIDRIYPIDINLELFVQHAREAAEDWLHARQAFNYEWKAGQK

[4] = biological target: T4, BsaWI R130A (UniProt Q6UQ65 1-272, R130A); conditions: protein: recombinant; chain copies: 2; label: 33P; blunt
T4 sequence: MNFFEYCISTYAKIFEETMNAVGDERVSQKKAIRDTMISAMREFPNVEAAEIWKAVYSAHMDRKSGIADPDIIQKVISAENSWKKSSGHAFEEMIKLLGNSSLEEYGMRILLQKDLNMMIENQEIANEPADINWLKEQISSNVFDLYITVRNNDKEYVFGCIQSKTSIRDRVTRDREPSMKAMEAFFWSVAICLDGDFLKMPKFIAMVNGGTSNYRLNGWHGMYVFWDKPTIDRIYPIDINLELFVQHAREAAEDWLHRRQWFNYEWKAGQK

[5] = biological target: T5, BsaWI W262A (UniProt Q6UQ65 1-272, W262A); conditions: protein: recombinant; chain copies: 2; label: 33P; blunt
T5 sequence: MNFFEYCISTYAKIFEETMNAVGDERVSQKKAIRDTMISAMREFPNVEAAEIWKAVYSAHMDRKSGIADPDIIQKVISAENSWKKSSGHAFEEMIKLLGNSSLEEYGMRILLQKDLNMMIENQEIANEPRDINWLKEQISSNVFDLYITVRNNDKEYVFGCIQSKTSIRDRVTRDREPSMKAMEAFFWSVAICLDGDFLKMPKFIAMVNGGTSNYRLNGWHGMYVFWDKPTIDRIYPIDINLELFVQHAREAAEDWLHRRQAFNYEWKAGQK

[6] = biological target: T6, BsaWI D145A (UniProt Q6UQ65 1-272, D145A); conditions: protein: recombinant; chain copies: 4; label: 33P; blunt
T6 sequence: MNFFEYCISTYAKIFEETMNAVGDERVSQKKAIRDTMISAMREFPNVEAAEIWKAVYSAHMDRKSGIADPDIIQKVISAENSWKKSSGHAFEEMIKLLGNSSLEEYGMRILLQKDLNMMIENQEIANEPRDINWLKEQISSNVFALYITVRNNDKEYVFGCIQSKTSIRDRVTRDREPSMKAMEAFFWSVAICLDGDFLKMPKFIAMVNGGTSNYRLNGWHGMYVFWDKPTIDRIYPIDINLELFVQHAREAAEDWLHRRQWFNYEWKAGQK

[7] = biological target: T7, BsaWI wt (UniProt Q6UQ65 1-272); conditions: protein: recombinant; chain copies: 4; label: 33P; blunt
T7 sequence: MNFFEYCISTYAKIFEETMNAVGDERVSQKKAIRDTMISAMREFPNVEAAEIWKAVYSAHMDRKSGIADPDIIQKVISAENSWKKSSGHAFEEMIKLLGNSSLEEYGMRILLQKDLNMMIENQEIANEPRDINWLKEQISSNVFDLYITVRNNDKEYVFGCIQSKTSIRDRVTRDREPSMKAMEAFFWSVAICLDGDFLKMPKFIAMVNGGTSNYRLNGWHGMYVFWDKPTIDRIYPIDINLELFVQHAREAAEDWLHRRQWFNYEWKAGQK

B1: SP (dsDNA)
DNA 1: GCCTTTCGGTTTACCGGTGTCATTCCGCTG
DNA 2: CAGCGGAATGACACCGGTAAACCGAAAGGC
B1 was tested, and the Kd [1] was 2.7 ± 0.7 nM, the Kd [2] was 2.1 ± 0.5 nM and the Kd [3] was 2.6 ± 0.6 nM. It also gave a Kd [4] of 3.9 ± 0.6 nM, a Kd [5] of 2.7 ± 0.8 nM and a Kd [6] of 17 ± 4.7 nM. The Kd [7] was 2.9 ± 0.4 nM.
